Reference: patent US20030176382

Target: T1, synthetic peptide substrate ALERTFLSFPT
T1 chain: ALERTFLSFPT

B1: aspartyl proteinase purified from the adult hookworm Necator americanus (protein)
chain: GVYKIPLKRITPPMIKMLRAGTWETYVEGMRKRQLQLLKEHKVHIQDVLGYANMEYLGEITIGTPQQKFLVVLDTGSSNLWVPDDSCYKEKRPDRCLVSNCDAGLVCQVFCPDPKCCEHTREFKQVNACKDKHRFDQKNSNTYVKTNKTWAIAYGTGDARGFFGRDTVRLGAEGKDQLVINDTWFGQAEHIAEFFSNTFLDGILGLAFQELSEGGVAPPIIRAIDLGLLDQPIFTVYFENVGDKEGVYGGVFTWGGLDPDHCEDEVTYEQLTEATYWQFRLKGVSSKNFSSTAGWEAISDTGTSLNGAPRGILRSIARQYNGQYVASQGLYVVDCSKNVTVDVTIGDRNYTMTAKNLVLEIQADICIMAFFEMDMFIGPAWILGDPFIREYCNIHDIEKKRIGFAAVKH
B1 was tested, and the “substrate specificity assay (cleavage of a synthetic peptide substrate)” value was “the proteinase cleaved the synthetic peptide substrate ALERTFLSFPT (SEQ ID NO. 7)”.
